Blank lines part the entries; values can stand above or below the substance they belong to.
What was measured:
[1] = molecular target: purified recombinant soluble tissue factor (UniProt P13726); assay: cell-based or functional assay
[2] = molecular target: cell-surface tissue factor on rat vascular smooth muscle cells (rat) (UniProt P42533); assay: cell-based or functional assay
Chain of UniProt P42533 (P42533 29-295): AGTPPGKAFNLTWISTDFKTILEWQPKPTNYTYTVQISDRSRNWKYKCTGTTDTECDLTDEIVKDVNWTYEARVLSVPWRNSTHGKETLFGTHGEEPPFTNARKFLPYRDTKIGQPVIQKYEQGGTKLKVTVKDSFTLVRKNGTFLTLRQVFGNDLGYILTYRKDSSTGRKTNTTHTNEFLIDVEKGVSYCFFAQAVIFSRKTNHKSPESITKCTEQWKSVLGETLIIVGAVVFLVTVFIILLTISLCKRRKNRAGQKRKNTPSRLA

Chain of UniProt P13726 (P13726 33-251 limits assumed): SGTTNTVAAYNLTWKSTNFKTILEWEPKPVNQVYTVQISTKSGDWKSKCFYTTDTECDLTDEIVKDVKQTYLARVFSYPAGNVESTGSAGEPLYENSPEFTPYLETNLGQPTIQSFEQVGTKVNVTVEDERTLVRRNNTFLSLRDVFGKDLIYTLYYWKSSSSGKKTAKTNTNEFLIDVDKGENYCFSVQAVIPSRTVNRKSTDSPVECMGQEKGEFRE

- OD405, Factor Xa chromogenic activity (S-2222), DEGR-Factor VIIa 0 nM with 100 nM Factor VIIa and soluble tissue factor (cell read as 0 | 0.810) [1]: 0.81 OD405
- OD405, Factor Xa chromogenic activity (S-2222), DEGR-Factor VIIa 5 nM with 100 nM Factor VIIa and soluble tissue factor (cell read as 5 | 0.750) [1]: 0.75 OD405
- OD405, Factor Xa chromogenic activity (S-2222), DEGR-Factor VIIa 10 nM with 100 nM Factor VIIa and soluble tissue factor (cell read as 10 | 0.609) [1]: 0.609 OD405
- OD405, Factor Xa chromogenic activity (S-2222), DEGR-Factor VIIa 20 nM with 100 nM Factor VIIa and soluble tissue factor (cell read as 20 | 0.296) [1]: 0.296 OD405
- OD405, Factor Xa chromogenic activity (S-2222), DEGR-Factor VIIa 40 nM with 100 nM Factor VIIa and soluble tissue factor (cell read as 40 | 0.167) [1]: 0.167 OD405
- OD405, Factor Xa chromogenic activity (S-2222), DEGR-Factor VIIa 80 nM with 100 nM Factor VIIa and soluble tissue factor (cell read as 80 | 0.083) [1]: 0.083 OD405
- OD405, Factor Xa chromogenic activity (S-2222), DEGR-Factor VIIa 160 nM with 100 nM Factor VIIa and soluble tissue factor (cell read as 160 | 0.055) [1]: 0.055 OD405
- OD405, Factor Xa chromogenic activity (S-2222) on rat smooth muscle cells, DEGR-Factor VIIa 0.00 nM coincubated with 100 nM Factor VIIa [2]: 0.208 OD405
- OD405, Factor Xa chromogenic activity (S-2222) on rat smooth muscle cells, DEGR-Factor VIIa 0.39 nM coincubated with 100 nM Factor VIIa [2]: 0.176 OD405
- OD405, Factor Xa chromogenic activity (S-2222) on rat smooth muscle cells, DEGR-Factor VIIa 1.56 nM coincubated with 100 nM Factor VIIa [2]: 0.116 OD405
- OD405, Factor Xa chromogenic activity (S-2222) on rat smooth muscle cells, DEGR-Factor VIIa 6.25 nM coincubated with 100 nM Factor VIIa [2]: 0.073 OD405
- OD405, Factor Xa chromogenic activity (S-2222) on rat smooth muscle cells, DEGR-Factor VIIa 25.00 nM coincubated with 100 nM Factor VIIa [2]: 0.026 OD405
- OD405, Factor Xa chromogenic activity (S-2222) on rat smooth muscle cells, DEGR-Factor VIIa 100.00 nM coincubated with 100 nM Factor VIIa [2]: 0.014 OD405
- OD405, Factor Xa chromogenic activity (S-2222) on serum-stimulated rat smooth muscle cells, 10 nM Factor VIIa + 100 nM DEGR-Factor VIIa [2]: 0.073 OD405
- inhibition of chromogenic activity at a 1:1 molar ratio of DEGR-Factor VIIa:Factor VIIa on rat smooth muscle cells [2]: 95%
Substance: DEGR-Factor VIIa (enzyme)

- OD405, Factor Xa chromogenic activity (S-2222) on PDGF-BB-stimulated rat smooth muscle cells, 10 nM Factor VIIa, cells washed before Factor X was added [2]: 0.36 OD405
- OD405, Factor Xa chromogenic activity (S-2222) on rat smooth muscle cells stimulated with 10% FCS, 10 nM Factor VIIa, cells washed before Factor X was added [2]: 0.342 OD405
- OD405, Factor Xa chromogenic activity (S-2222) on rat smooth muscle cells, Factor VIIa 0.10 nM [2]: 0.005 OD405
- OD405, Factor Xa chromogenic activity (S-2222) on rat smooth muscle cells, Factor VIIa 0.39 nM [2]: 0.025 OD405
- OD405, Factor Xa chromogenic activity (S-2222) on rat smooth muscle cells, Factor VIIa 1.56 nM [2]: 0.058 OD405
- OD405, Factor Xa chromogenic activity (S-2222) on rat smooth muscle cells, Factor VIIa 6.25 nM [2]: 0.111 OD405
- OD405, Factor Xa chromogenic activity (S-2222) on rat smooth muscle cells, Factor VIIa 25.00 nM [2]: 0.154 OD405
- OD405, Factor Xa chromogenic activity (S-2222) on rat smooth muscle cells, Factor VIIa 100.00 nM [2]: 0.208 OD405
- OD405, Factor Xa chromogenic activity (S-2222) on serum-stimulated rat smooth muscle cells, 10 nM Factor VIIa alone [2]: 0.342 OD405
- OD405, Factor Xa chromogenic activity (S-2222) on unstimulated rat smooth muscle cells (Intrinsic), 10 nM Factor VIIa, cells washed before Factor X was added [2]: 0.247 OD405
Substance: recombinant human Factor VIIa (enzyme)
